Paper PMC3391290

Columns and labels:
[1] = biological target: TSHR-LHR-6 chimeric receptor; assay: radioligand binding; membrane preparations of TSHR wild type, mutants and constructs, 125I-hTSH with increasing unlabelled hTSH; with MAb 311.87 (134 nM) (Table 5)
[2] = biological target: TSHR-LHR-6 chimeric receptor; assay: radioligand binding; membrane preparations of TSHR wild type, mutants and constructs, 125I-hTSH with increasing unlabelled hTSH; with NMIgG (control) (Table 5)

human thyroid stimulating hormone (hTSH), sequence (P01215 25-116): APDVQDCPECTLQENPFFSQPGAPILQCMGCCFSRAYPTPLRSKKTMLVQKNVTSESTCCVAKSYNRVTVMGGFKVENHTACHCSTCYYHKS
human thyroid stimulating hormone (hTSH), sequence (P01222 21-132): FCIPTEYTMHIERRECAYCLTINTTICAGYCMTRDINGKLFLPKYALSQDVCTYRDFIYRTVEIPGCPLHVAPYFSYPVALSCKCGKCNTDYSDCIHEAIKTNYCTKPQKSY

Kd with MAb 311.87 [1]: 0.39 nM
Kd [2]: 0.27 nM
Substance: human thyroid stimulating hormone (hTSH) (from UniProt P01215 25-116; P01222 21-132) (ligand)
